Paper PMC3575409, “Identification of a Novel Protein-Protein Interaction Motif Mediating Interaction of GPCR-Associated Sorting Proteins with G Protein-Coupled Receptors” (PLoS ONE, 2013)

Legend:
[1] = biological target: T1, purified full-length cannabinoid receptor type 2 (CNR2) (human, UniProt P34972 1-360); assay: SPR; competition: 1.1 µM ADRB2 or 0.30 µM CNR2 preincubated at least 1 h with a range of GASP peptide or control peptide, injected over captured GST-tagged central domain of GASP-1; 25°C; endpoint responses 20 s after injection end; settings: both partners purified
T1 construct: human cannabinoid receptor type 2; further tags may be present; also called full-length CNR2; source: P. pastoris, solubilized in DDM/CHS, purified (HisTrap)

[2] = biological target: T2, purified full-length β2 adrenergic receptor (ADRB2) (human, UniProt P07550 1-413); assay: as above; settings: both partners purified
T2 construct: human β2 adrenergic receptor; further tags may be present; also called full-length ADRB2; source: P. pastoris, solubilized in DDM/CHS, purified (HisTrap)

T1 sequence (P34972 whole entry, the tested form may be a part): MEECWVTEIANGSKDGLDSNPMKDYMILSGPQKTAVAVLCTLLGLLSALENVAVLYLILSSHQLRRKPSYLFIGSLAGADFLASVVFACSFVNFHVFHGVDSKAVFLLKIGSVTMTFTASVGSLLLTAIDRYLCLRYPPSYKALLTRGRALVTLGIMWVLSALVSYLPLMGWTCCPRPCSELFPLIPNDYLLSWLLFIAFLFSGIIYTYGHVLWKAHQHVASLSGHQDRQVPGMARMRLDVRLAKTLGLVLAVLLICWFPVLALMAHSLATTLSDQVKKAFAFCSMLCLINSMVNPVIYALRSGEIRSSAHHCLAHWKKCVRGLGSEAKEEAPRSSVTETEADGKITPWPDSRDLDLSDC

B1: GASP peptide (peptide)
peptide: RVKQEPRFEEEVIIGSWFWAEKEA
notes: 24 amino acids containing the first GASP motif of GASP-2; also called synthetic peptide of 24 amino acids containing the first GASP motif of GASP-2; source: synthetic peptide (Genecust, ≥85% purity)
With B1 the IC50 [1] was about 100 µM and the IC50 [2] was about 100 µM.
